Here are results for four molecules from patent publication US9066906B2, “Lunasin-containing complex and purification of lunasin from plants” (University of Louisville Research Foundation, Inc., priority 2009, dated 2015).

Test [1] concerns SK-BR-3 human breast cancer cells. The test is described as follows: MTS cell proliferation assay, lunasin in combination with curcumin. The conditions noted are these: FIG. 7; for effect on the antiproliferative effect of curcumin: SK-BR-3 breast cancer cells, in combination with curcumin. The class given is cell-based. On the procedure:
FIGS. 7A and 7B include the results of MTS cell proliferation assays, using SK-BR-3 human breast cancer cells, performed in the absence or presence of either synthetic lunasin or purified soybean-derived lunasin in combination with curcumin over a 1-3 day period.
MTS cell proliferation assays using SK-BR-3 human breast cancer cells were performed in the absence or presence of either synthetic lunasin or purified soybean-derived lunasin in combination with curcumin over a 2-3 day period. SK-BR-3 cells, whose growth were unaffected by lunasin alone, were inhibited up to 98% when combined with curcumin.
With reference to FIG. 7, synthetic lunasin and highly purified soybean-derived lunasin were used in combination with curcumin in an in vitro cell proliferation assays to assess the activity of lunasin against specific cancer cell lines.
Background: Formazan colour is commonly taken as a measure of viable cells.

Test [2] has as its system MDA-MB-231, adenocarcinoma, mammary gland origin. The experiment in a line: MTS cell proliferation assay. The test is classed as cell-based, human. The conditions noted are these: lunasin 30 or 100 μM, complex 10 or 30 μM, 72 hours, FIG. 4. As to the method:
(§1) The ability of lunasin, purified from soybean white flake in accordance with the presently-disclosed subject matter, to inhibit the proliferation of specific cancer cell lines was studied. Recent studies have shown that lunasin and lunasin-containing protein preparations can inhibit the proliferation of several cancer cell lines in vitro. To further assess and confirm the biological activity of lunasin and the lunasin-containing complex, cell proliferation assays were conducted with a panel of established cancer cell lines.
(§2) A panel of cancer cell lines was collected from colleagues or purchased from the American Type Culture Collection. Cells were grown in the appropriate medium and treated with PBS (control), lunasin (30 or 100 μM), or the lunasin-containing complex (10 or 30 μM) for 72 hours. Cell viability was assessed using a standard [3-(4,5-dimethylthiazol-2-yl)-5-(3-carboxymethoxy-phenyl)-2-(4-sulfo-phenyl)-2H-tetrazolium (MTS) assay. The data shown (FIG. 4) represent the number of viable cells relative to the PBS-treated controls. The human cell lines tested were: H661, non-small cell lung cancer; H1299, non-small cell lung cancer; SKBR3, adenocarcinoma mammary gland origin; MDA-MB-231, adenocarcinoma, mammary gland origin; MCF-7, adenocarcinoma, mammary gland origin; and HT-29, adenocarcinoma, colon origin.

Test [3] has as its system H661, non-small cell lung cancer. The experiment in a line: MTS cell proliferation assay. The class given is cell-based, human. As to conditions: lunasin 30 or 100 μM, complex 10 or 30 μM, 72 hours, FIG. 4. As to the method:
as §1, §2

The test system of test [4] is H1299, non-small cell lung cancer. The experiment in a line: MTS cell proliferation assay. The class given is cell-based, human. The conditions noted are these: lunasin 30 or 100 μM, complex 10 or 30 μM, 72 hours, FIG. 4. On the procedure:
as §1, §2

The target in another test is human histone H4 (hH4) (Homo sapiens, UniProt P62805). The test is described as follows: in vitro histone binding assay (microtiter plate, anti-lunasin antibody, absorbance at 450 nm). As to conditions: FIG. 3. The text has this:
(§3) The ability of lunasin, purified from soybean white flake in accordance with the presently-disclosed subject matter, to bind the cores histones H3 and H4 was studied. […] To confirm the biological activity of the lunasin purified from soybean white flake using the methods in the subject matter disclosed herein, an in vitro binding assay was used to assess binding to the human H3 and H4 proteins.
(§4) Increasing amounts of histone 3.3 (hH3.3) and histone 4 (hH4) were bound to wells of a […] microtiter plate. Different amounts of either synthetic lunasin or purified lunasin were added to the wells and allowed to bind. The concentration of lunasin bound was determined using a polyclonal antibody against lunasin and a horseradish peroxidase conjugated antibody that recognizes the lunasin antibody. Binding was quantitated by measuring the absorbance at 450 nm.

For the next test, the target named is human histone H3 (hH3.3) (Homo sapiens, UniProt P84243). The description is as above. As to conditions: FIG. 3.
Text: as §3, §4

Test [5] has as its system MCF-7, adenocarcinoma, mammary gland origin. The experiment in a line: MTS cell proliferation assay. The test is classed as cell-based, human. As to conditions: complex 10 or 30 μM, 72 hours, FIG. 4. On the procedure: as §1, §2
The test system of test [6] is HT-29, adenocarcinoma, colon origin. The experiment in a line: MTS cell proliferation assay. The test is classed as cell-based, human. The conditions noted are these: complex 10 or 30 μM, 72 hours, FIG. 4. On the procedure: as §1, §2
For test [7], the system named is SKBR3, adenocarcinoma mammary gland origin. The test is described as follows: MTS cell proliferation assay. The class given is cell-based, human. As to conditions: complex 10 or 30 μM, 72 hours, FIG. 4. As to the method:
as §1, §2

The test system of test [8] is panel of cancer cell lines. The test is described as follows: MTS cell proliferation assays with a panel of established cancer cell lines. As to conditions: 72 hours, FIG. 4. The test is classed as cell-based, human. As to the method: as §1, §2

“Also recorded” adds a separate entry of the source.

As to lunasin, the “growth of SK-BR-3 cells, lunasin alone” value in [1] (without curcumin, 2-3 day period) is given as “unaffected”.

As for “soybean-derived lunasin: lunasin polypeptide purified from soybean white flake, 5139.25 Da, corresponding to SEQ ID NO: 2 (additional C-terminal Asn) (SKWQHQQDSCRKQLQGVNLTPCEKHIMEKIQGRGDDDDDDDDDN; Glycine max)”, in [2], the “growth/proliferation of MDA-MB-231 cells (viable cells relative to PBS-treated controls)” value was “minor effect”. Further, the “growth/proliferation of H661 cells (viable cells relative to PBS-treated controls)” value in test [3] is on record as “significantly inhibit the growth”. Also, the “growth/proliferation of H1299 cells (viable cells relative to PBS-treated controls)” value in test [4] is listed as “minor effect”. Also, the “effect on the antiproliferative effect of curcumin” value in test [1] was “significantly enhanced the antiproliferative effect of curcumin”. Besides, in the test with human histone H4 (hH4), the “binding to human histone H4” value was “affinity greater than that observed using a synthetic lunasin; also recorded: bound to both H4 and H3 in a dose dependent manner”; the “preference of binding, H4 versus H3” value was “higher affinity for H4 than for H3”. Moreover, the “binding to human histone H3” value with human histone H3 (hH3.3) is “affinity greater than that observed using a synthetic lunasin; also recorded: bound to both H4 and H3 in a dose dependent manner”.

For the molecule “synthetic lunasin: synthetic lunasin created by peptide synthesis, comprised of SEQ ID NO: 1 [reference compound]”, the “effect on the antiproliferative effect of curcumin” value in test [1] is listed as “significantly enhanced the antiproliferative effect of curcumin”. In addition, in the test with human histone H4 (hH4), the “binding to human histone H4” value is “binding was lower than observed using the soybean-derived lunasin” and the “preference of binding, H4 versus H3” value is listed as “more binding to H4 compared to H3”. Besides, the “binding to human histone H3” value in the test with human histone H3 (hH3.3) was “binding was lower than observed using the soybean-derived lunasin”.

B1: lunasin-containing complex: lunasin polypeptide of SEQ ID NO: 2 linked by disulfide bridges to a second polypeptide of SEQ ID NO: 3, 14.1 kDa, from soybean (protein)
chain 1: SKWQHQQDSCRKQLQGVNLTPCEKHIMEKIQGRGDDDDDDDDDN
chain 2: EGKDEDEEEEGHMQKCCTEMSELRSPKCQCKALQKIMENQSEELEEKQKKKMEKELINLATMCRFGPMIQCDLSSDD
modifications: disulfide-linked complex; Glycine max
B1: the “growth/proliferation of MDA-MB-231 cells (viable cells relative to PBS-treated controls)” value in test [2] is reported as “most sensitive”. For the same molecule, the “proliferation of MCF-7 cells (viable cells relative to PBS-treated controls)” value in [5] is on record as “reduced proliferation”. Further, in test [6], the “proliferation of HT-29 cells (viable cells relative to PBS-treated controls)” value is “reduced proliferation”. For the same molecule, the “growth/proliferation of H661 cells (viable cells relative to PBS-treated controls)” value in [3] is recorded as “most sensitive”. Further, the “proliferation of SKBR3 cells (viable cells relative to PBS-treated controls)” value in test [7] is on record as “reduced proliferation”. Further, the “growth/proliferation of H1299 cells (viable cells relative to PBS-treated controls)” value in test [4] is reported as “most sensitive”. Besides, in [8], the “antiproliferative effectiveness compared with lunasin peptide alone” value is recorded as “more effective than the lunasin peptide alone”.
